Data published in publication doi:10.1101/2023.12.22.572193.

Molecular target: PfCoronin^R100K/E107V-smHA (P. falciparum (Pikine isolate, SenP019.04))
Assay: affinity purification with mass spectrometry

PfActin (from UniProt Q8I4X0 1-376) (natural protein)
fold reduction of normalised abundance against PfCoronin^WT-smHA: 3 fold
